The values below come from patent US20140045211A1.

This experiment has as its target CCR1 on HEK293 cells / HEK293 membranes stably expressing CCR1 (UniProt P32246). Description: cell-based or functional assay.

CCR1 on HEK293 cells / HEK293 membranes stably expressing CCR1, sequence (P32246 whole entry): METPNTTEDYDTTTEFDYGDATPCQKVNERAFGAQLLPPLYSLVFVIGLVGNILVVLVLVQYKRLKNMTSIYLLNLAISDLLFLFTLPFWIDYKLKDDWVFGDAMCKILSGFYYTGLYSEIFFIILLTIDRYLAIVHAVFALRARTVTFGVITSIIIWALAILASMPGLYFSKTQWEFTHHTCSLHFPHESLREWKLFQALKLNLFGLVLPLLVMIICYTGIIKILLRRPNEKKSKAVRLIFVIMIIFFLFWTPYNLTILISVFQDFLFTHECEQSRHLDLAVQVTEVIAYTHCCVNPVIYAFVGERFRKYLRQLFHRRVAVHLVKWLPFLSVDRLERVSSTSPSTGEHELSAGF

For “CCL14-fluorescein (CCL14 9-74 with added C-terminal cysteine labeled with fluorescein-5-maleimide) (from UniProt Q16627 28-93) (ligand)”, the calcium flux (dose response curve) is 2 nM.
